Measured values as given in doi:10.1101/2023.09.21.558797 (2023).

B1: GST-Dyn1xA-PRR (full-length proline-rich region of Dynamin 1 splice variant xA, 746-864) [rat] / Endophilin A1 (endogenous, rat brain synaptosomes) [rat (endogenous in rat brain synaptosomes)] (parent complex)
chain 1: NTTTVSTPMPPPVDDSWLQVQSVPAGRRSPTSSPTPQRRAPAVPPARPGSRGPAPGPPPAGSALGGAPPVPSRPGASPDPFGPPPQVPSRPNRAPPGVPSRSGQASPSRPESPRPPFDL
chain 2: MSVAGLKKQFHKATQKVSEKVGGAEGTKLDDDFKEMERKVDVTSRAVMEIMTKTIEYLQPNPASRAKLSMINTMSKIRGQEKGPGYPQAEALLAEAMLKFGRELGDDCNFGPALGEVGEAMRELSEVKDSLDMEVKQNFIDPLQNLHDKDLREIQHHLKKLEGRRLDFDYKKKRQGKIPDEELRQALEKFDESKEIAESSMFNLLEMDIEQVSQLSALVQAQLEYHKQAVQILQQVTVRLEERIRQASSQPRREYQPKPRMSLEFATGDGTQPNGGLSHTGTPKPAGVQMDQPCCRALYDFEPENEGELGFKEGDIITLTNQIDENWYEGMLHGQSGFFPINYVEILVALPH
B2: GST-Dyn1xA-PRR (full-length proline-rich region of Dynamin 1 splice variant xA, 746-864) [rat] / Amphiphysin 1 (endogenous, rat brain synaptosomes) [rat (endogenous in rat brain synaptosomes)] (parent complex)
chain 1: B1 chain 1
chain 2: MADIKTGIFAKNVQKRLNRAQEKVLQKLGKADETKDEQFEEYVQNFKRQEAEGTRLQRELRGYLAAIKGMQEASMKLTESLHEVYEPDWYGREDVKMVGEKCDVLWEDFHQKLVDGSLLTLDTYLGQFPDIKNRIAKRSRKLVDYDSARHHLEALQSSKRKDESRISKAEEEFQKAQKVFEEFNVDLQEELPSLWSRRVGFYVNTFKNVSSLEAKFHKEIAVLCHKLYEVMTKLGDQHADKAFSIQGAPSDSGPLRIAKTPSPPEEASPLPSPTASPNHTLAPASPAPVRPRSPSQTRKGPPVPPLPKVTPTKELQQENIINFFEDNFVPEINVTTPSQNEVLEVKKEETLLDLDFDPFKPDVTPAGSAAATHSPMSQTLPWDLWTTSTDLVQPASGGSFNDFTQPQDTSLFTMQTDQNMAETEQALPTEPQAEEPPTTAAAPTAGLDLGLEMEEPKEEAAIPPGTDAGETVGTEGSTGEEAEAEKAALPAGEGESPEGAKIDVESTELASSESPQAAELEAGAPQEKVIPSVVIEPASNHEGEEHQETTTGTETREATEDVAPQGPAGEKQELATEPTPLDSQAATPAPAGAVDASLSAGDAAQELPPGFLYKVETLHDFEAANSDELTLQRGDVVLVVPSDSEADQDAGWLVGVKESDWLQYRDLATYKGLFPENFTRHLE

Variants of: B1
Assay: GST pull-down, densitometry of western blots; n=2; parent: 100; read off a plot

Row | Variant | percent of parent
1 | chain 1 S106E, chain 1 S112E | ~53%
2 | chain 1 S29E, chain 1 S33E | ~37%

Variants of: B2
Assay: as above

Row | Variant | percent of parent
3 | chain 1 NTTTVSTPMPPPVDDSWLQVQSVPAGRRSPTSSPTPQRRAPAVPPARPGSRGPAPGPPPAGSALGGAPPVPSRPGASPDPFGPPPQVPSRPNRAPPGVPSRSGQAEPSRPEEPRPPFDL [chain 1 S106E, chain 1 S112E] | ~90%
4 | chain 1 NTTTVSTPMPPPVDDSWLQVQSVPAGRREPTSEPTPQRRAPAVPPARPGSRGPAPGPPPAGSALGGAPPVPSRPGASPDPFGPPPQVPSRPNRAPPGVPSRSGQASPSRPESPRPPFDL [chain 1 S29E, chain 1 S33E] | ~98%
